Measurements from patent US20170298146A1 (MODIQUEST B V, published 2017).
Non-standard residues stand in square brackets, D forms with d. No end group written: not given here. Cit = NC(=O)NCCC[C@H](N)C(=O)O

Assays:
msFibβ XG = biological target: T1, msFibβ XG (mouse, also: biotin label); assay: peptide ELISA, 0.016 ug/well
T1 peptide: EPTDSLDA[Cit]GHRPVDRR
Experimental: (§1) Biotin and citrulline-containing peptides derived from fibrinogen and vimentin were immobilized on NEUTRAVIDIN®-coated 96-well ELISA plates (0.3 μg/well). CFC-1 and CFC-0 were coated at the same concentration and served as positive and negative controls respectively for specific anti-citrulline reactivity and as coating controls. Non-coated wells were used to test for aspecific binding of the antibodies. […] Detection of bound anti-citrulline antibodies was performed by incubating the wells with rabbit-anti-human-HRP (1:2000) for one hour at RT followed by incubation with TMB substrate. The resulting OD (y-axis) is a measure for antibody binding.
(§2) Biotin-labeled and citrulline-containing fibrinogen and vimentin peptides (Table 5) were also tested for reactivity with the therapeutic antibodies. Peptides were coated on 96-well NEUTRAVIDIN®-ELISA plates.

huFibα XG = biological target: T2, huFibα XG (human, X at position 8 is citrulline; biotin label); assay: peptide ELISA, 0.016 ug/well
T2 peptide: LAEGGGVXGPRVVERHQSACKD
Experimental: as §1, §2

msVim XS/XL = biological target: T3, msVim XS/XL (mouse, also: biotin label); assay: peptide ELISA, 0.016 ug/well
T3 construct: also called mouse vimentin peptide
T3 peptide: YVT[Cit]SSAV[Cit]L[Cit]SSVP
Experimental: as §1, §2

CFC-1 [1] = biological target: T4, CFC-1; assay: peptide ELISA, 0.016 ug/well
T4 construct: Positive control for anti-citrulline reactivity; also called cfc1 XG
Experimental: as §1, §2

[2] = biological target: T5, Histone 2A citrulline-containing peptide 7 (human, also: biotin label); assay: peptide ELISA, 0.00064 ug/well
T5 peptide: GNYSE[Cit]VGAGAP
Experimental: as §1, with “histone 2A” for “fibrinogen and vimentin”
(§3) Ninety-six-well ELISA plates were coated with NEUTRAVIDIN® (0.1 μg/well) by overnight incubation at 4° C. Wells were washed five times with PBS-TWEEN®-20 (PBS-T) and blocked by a one-hour incubation with PBS-T+1% Bovine serum albumin (BSA) at room temperature (RT). After five more washes with PBS-T, wells were incubated for one hour at RT with histone-derived citrulline and biotin-containing peptides (0.3 μg/well). […] Wells were washed five times with PBS-T and incubated with rabbit-anti-human-HRP (1:2000) for one hour at RT followed by five washes with PBS-T and three wash steps with PBS. Wells were incubated for five minutes with TMB substrate before stopping the reaction with 2 M H₂SO₄. Optical density was measured by 450 nm and is a measure for the affinity of the antibodies used.

[3] = biological target: T6, Histone 2A citrulline-containing peptide 8 (human, also: biotin label); assay: peptide ELISA, 0.00064 ug/well
T6 peptide: AGNAA[Cit]DNKKTR
Experimental: as §1, with “histone 2A” for “fibrinogen and vimentin”
as §3

CFC-1 [4] = biological target: T4, CFC-1; assay: peptide ELISA, 0.00064 ug/well
Experimental: as §1, with “histone 2A” for “fibrinogen and vimentin”
as §3

[5] = biological target: T7, Histone 2A citrulline-containing peptide 9 (human, also: biotin label); assay: peptide ELISA, 0.00064 ug/well
T7 peptide: DNKKT[Cit]IIPRHL
Experimental: as §1, with “histone 2A” for “fibrinogen and vimentin”
as §3

[6] = biological target: T8, Histone 2A citrulline-containing peptide 1 (human, also: biotin label); assay: peptide ELISA, 0.00064 ug/well
T8 construct: also called AAASGXGKQGGK
T8 peptide: AAASG[Cit]GKQGGK
Experimental: as §1, with “histone 2A” for “fibrinogen and vimentin”
as §3

[7] = biological target: T9, Histone 2A citrulline-containing peptide 11 (human, also: biotin label); assay: peptide ELISA, 0.00064 ug/well
T9 peptide: LQLAI[Cit]NDEELN
Experimental: as §1, with “histone 2A” for “fibrinogen and vimentin”
as §3

[8] = biological target: T10, Histone 2A citrulline-containing peptide 4 (human, also: biotin label); assay: peptide ELISA, 0.00064 ug/well
T10 peptide: QFPVG[Cit]VHRLLR
Experimental: as §1, with “histone 2A” for “fibrinogen and vimentin”
as §3

[9] = biological target: T11, Histone 2A citrulline-containing peptide 5 (human, also: biotin label); assay: peptide ELISA, 0.00064 ug/well
T11 peptide: VGRVH[Cit]LLRKGN
Experimental: as §1, with “histone 2A” for “fibrinogen and vimentin”
as §3

[10] = biological target: T12, Histone 2A citrulline-containing peptide 2 (human, also: biotin label); assay: peptide ELISA, 0.00064 ug/well
T12 peptide: AKAKS[Cit]SSRAGL
Experimental: as §1, with “histone 2A” for “fibrinogen and vimentin”
as §3

[11] = biological target: T5, Histone 2A citrulline-containing …; assay: peptide ELISA, 0.4 ug/well
Experimental: as §1, with “histone 2A” for “fibrinogen and vimentin”
as §3

[12] = biological target: T13, Histone 2A citrulline-containing peptide 12 (human, also: biotin label); assay: peptide ELISA, 0.4 ug/well
T13 peptide: NKLLG[Cit]VTIAQG
Experimental: as §1, with “histone 2A” for “fibrinogen and vimentin”
as §3

[13] = biological target: T6, Histone 2A citrulline-containing …; assay: peptide ELISA, 0.4 ug/well
Experimental: as §1, with “histone 2A” for “fibrinogen and vimentin”
as §3

[14] = biological target: T14, Histone 2A citrulline-containing peptide 6 (human, also: biotin label); assay: peptide ELISA, 0.4 ug/well
T14 peptide: VHRLL[Cit]KGNYSE
Experimental: as §1, with “histone 2A” for “fibrinogen and vimentin”
as §3

[15] = biological target: T15, Histone 2A citrulline-containing peptide 3 (human, also: biotin label); assay: peptide ELISA, 0.4 ug/well
T15 peptide: KSRSS[Cit]AGLQFP
Experimental: as §1, with “histone 2A” for “fibrinogen and vimentin”
as §3

CFC-1 [16] = biological target: T4, CFC-1; assay: peptide ELISA, 0.4 ug/well
Experimental: as §1, with “histone 2A” for “fibrinogen and vimentin”
as §3

[17] = biological target: T7, Histone 2A citrulline-containing …; assay: peptide ELISA, 0.4 ug/well
Experimental: as §1, with “histone 2A” for “fibrinogen and vimentin”
as §3

[18] = biological target: T8, Histone 2A citrulline-containing …; assay: peptide ELISA, 0.4 ug/well
Experimental: as §1, with “histone 2A” for “fibrinogen and vimentin”
as §3

[19] = biological target: T9, Histone 2A citrulline-containing …; assay: peptide ELISA, 0.4 ug/well
Experimental: as §1, with “histone 2A” for “fibrinogen and vimentin”
as §3

[20] = biological target: T10, Histone 2A citrulline-containing …; assay: peptide ELISA, 0.4 ug/well
Experimental: as §1, with “histone 2A” for “fibrinogen and vimentin”
as §3

[21] = biological target: T11, Histone 2A citrulline-containing …; assay: peptide ELISA, 0.4 ug/well
Experimental: as §1, with “histone 2A” for “fibrinogen and vimentin”
as §3

[22] = biological target: T12, Histone 2A citrulline-containing …; assay: peptide ELISA, 0.4 ug/well
Experimental: as §1, with “histone 2A” for “fibrinogen and vimentin”
as §3

[23] = biological target: T16, Histone 2A citrulline-containing peptide 10 (human, also: biotin label); assay: peptide ELISA, 0.4 ug/well
T16 peptide: TRIIP[Cit]HLQLAI
Experimental: as §1, with “histone 2A” for “fibrinogen and vimentin”
as §3

B1: RhmAb2.102 (antibody, human IgG1, lambda)
heavy: not shown
light: QSVLTQPPSMSAAPGQKVTISCSGSSSNIGNNYVSWYQQVPGTAPKLLIYDDNKRPSGIPGRFSGSKSATSATLGITGLQAGDEADYYCGSWDDNLSVVLFGGGTKLTVLGQPKAAPSVTLFPPSSEELQANKATLVCLISDFYPGAVTVAWKADSSPVKAGVETTTPSKQSNNKYAASSYLSLTPEQWKSHRSYSCQVTHEGSTVEKTVAPTECS
notes: Human IgG1 lambda; also called Rhm2.102
For B1, the OD (msFibβ XG) was 0.174 OD, the OD (huFibα XG) was 0.103 OD and the OD (msVim XS/XL) was 0.201 OD. The OD (CFC-1 [1]) was 1.22 OD, the OD [2] was 0.057 OD and the OD [3] was 0.057 OD. It also gave an OD (CFC-1 [4]) of 0.621 OD, an OD [5] of 0.059 OD and an OD [6] of 0.16 OD. For the same binder, the OD [7] was 0.06 OD, the OD [8] was 0.063 OD and the OD [9] was 0.067 OD. It also gave an OD [10] of 0.055 OD, an OD [11] of 0.064 OD and an OD [12] of 0.061 OD. The OD [13] was 0.061 OD, the OD [14] was 0.333 OD and the OD [15] was 0.154 OD. The OD (CFC-1 [16]) was 3.06 OD, the OD [17] was 0.057 OD and the OD [18] was 2.8 OD. The OD [19] was 0.064 OD, the OD [20] was 0.564 OD and the OD [21] was 0.082 OD. It also gave an OD [22] of 0.136 OD and an OD [23] of 0.051 OD.
